One assay concerns the target T1, Human Sputum Elastase (Homo sapiens, UniProt P08246).
T1 construct: Human Sputum Elastase, product No. SE-563 EPC, Inc., Pacific, Mo; USA, Lot 85701; purchased EPC, Inc., Pacific, Mo; USA SE-563; host or cells: human sputum
T1 sequence (P08246 30-267): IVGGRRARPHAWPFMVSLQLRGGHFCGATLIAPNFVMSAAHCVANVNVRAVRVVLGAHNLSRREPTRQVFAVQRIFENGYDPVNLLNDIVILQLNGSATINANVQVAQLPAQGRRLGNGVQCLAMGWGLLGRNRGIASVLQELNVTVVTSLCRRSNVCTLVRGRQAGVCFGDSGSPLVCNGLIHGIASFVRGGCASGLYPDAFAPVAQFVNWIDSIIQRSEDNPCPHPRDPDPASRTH
The assay can be described thus: Elastase assay (spectrophotometric, p-nitroanilide substrate). Format: biochemical. Conditions: for Inhibitory Activity Elastase: inhibitor/protease ratio between about 10/1 and 50/1; for inhibition of human elastase (in words): text discussion of Table III. How it is done: (§1) The inhibitory activity of the polypeptides of the present invention can be easily assayed using in vitro assays. In these types of spectrophotometric assays the activity of the serine protease is measured toward an appropriate p-nitroanilide substrate in the presence and absence of the peptide inhibitor. The enzyme catalyzed hydrolysis of the peptide p-nitroanilide substrate produces p-nitroanaline which results in an increase in absorbance which is monitored in the range of 405 to 410 nm. The rate of increase in absorbance is a measure of the enzymatic activity and the decrease in this rate relative to a suitable control is used to ascertain inhibition. The general assay procedure and details of the particular assays employed in the examples are provided in the Appendix following the examples. It is also possible to test the polypeptides in a functionally oriented assay that emulates in vivo conditions. Such an inhibition assay for elastase is also described in the Appendix.
(§2) Generalized Protocol Spectrophotometric Assays:
(§3) (1) Pipette 100 μl of enzyme solution into a disposable polystyrene cuvette (1 cm optical path length).
(§4) (2) Add (1900-X) μl of bufferto the cuvette, where X is the volume of test solution in microliters that is added in the next step.
(§5) Add X μl of test solution to the cuvette, where X ranges from 0 μl for the control to a maximum of about 500 μl. Incubate the solution for a period of 1 to 5 minutes at ambient temperature.
(§6) (4) Add 100 μl of substrate solution to the cuvette. Mix the contents by covering the cuvette with a piece of paraffin film and repeatedly inverting for a period of 5 to 15 seconds.
(§7) (5) Record the change in absorbance for about 5 minutes at either 405 or 410 nm, depending on the assay, with a spectrophotometer equipped with a suitable recording device.
(§8) The percent inhibition is calculated from the formula [formula] where (ΔA/min) is the initial rate of absorbance change.
(§9) (7) For more accurate quantitative determinations temperature control of the cuvette holders and the reagent solutions can be instituted.
(§10) (8) The test solution can be crude oxidized peptide prepared as described above, fractions from a chromatographic separation or purified polypeptides.
(A) Buffer Solution - Tris-NaCl buffer consisting of 0.1M Tris-HCl pH 7.5 at 25° C. containing 0.5M NaCl and 0.01% (w/v) NaNs.
(B) Substrate Solution - Dissolve 45.5 mg of N-succinyl-L-alanyl-L-alanyl-L-alanine p-nitroanilide in 1 ml of 1-methyl-2-pyrrolidinone. Add 32 ml of Tris-NaCl buffer.
(C) Enzyme Solution - Human Sputum Elastase, product No. SE-563 EPC, Inc., Pacific, Mo. USA, Lot 85701. Dissolve 1 mg in 1 ml of Tris-NaCl buffer. Store on ice or at 4° C.
(§11) (D) Test Solution - See general protocol, number 8.
(§12) Procedure: Use the above solutions in the general protocol described above.
(1) Buffer Solution - Tris-NaCl buffer -see Method 1.
(2) Substrate Solution - Dissolve 50 mg of 3-carbomethoxypropionyl-L-alanyl-L-alanyl-L-[…]-L-valine p-nitroanilidein 1 ml of 1-methyl-2-pyrrolidinone. Add 32 ml of Tris-NaCl buffer.
(3) Enzyme Solution - Human sputum elastase, product No. SE-563, EPC, inc. Pacific, Mo. USA, Lot 85071. Prepare a sample at a concentration of 0.01 mg per ml of Tris-NaCl buffer. Store on ice.
(4) Test Solution - general protocol, number 8.
Procedure: Use the above solutions in the general protocol.
(1) Porcine pancreatic elastase may be substituted for human elastase when it is desired to test for an inhibitor of the former.
(2) The activity of an elastase preparation can be calculated as [formula]
(3) The Tris-NaCl buffer also can be pH 8.0 with 0.03% sodium azide. Results should be compared at a single pH.

In assay [1] the target is T2, bovine trypsin (Bos taurus, UniProt P00760).
T2 sequence (P00760 24-246): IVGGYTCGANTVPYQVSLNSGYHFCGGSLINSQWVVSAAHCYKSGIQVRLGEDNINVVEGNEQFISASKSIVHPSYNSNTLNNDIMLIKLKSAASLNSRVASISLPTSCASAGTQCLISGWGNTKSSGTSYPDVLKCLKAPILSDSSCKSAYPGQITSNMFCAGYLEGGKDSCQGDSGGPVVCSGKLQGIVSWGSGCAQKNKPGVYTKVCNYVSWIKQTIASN
Nature of the assay: Trypsin assay (spectrophotometric, N-Benzoyl-L-arginine p-nitroanilide substrate). Format: biochemical. Conditions: for Inhibitory Activity Trypsin: inhibitor/protease ratio between about 10/1 and 50/1. As to the method:
as §1, §2, §3, §4, §5, §6, §7, §8, §9, §10
(A) Buffer Solution - Triethanolamine buffer consisting of 200 mM triethanolamine, 20 mM CaCl2, pH 7.8
(B) Substrate solution - Dissolve 50 mg of N-Benzoyl-L-arginine p-nitroanilide in 50 ml of water. Sonicate for 5 to 10 minutes to completely dissolve the solid material.
(C) Enzyme solution - Dissolve 1 mg of bovine trypsin in 10 ml of 0.001N HCl stored on ice during the assay.
as §11, §12

The target of assay [2] is T3, bovine chymotrypsin (Bos taurus, UniProt P00766). Nature of the assay: Chymotrypsin assay (spectrophotometric, p-nitroanilide substrate). Format: biochemical. Conditions: for Inhibitory Activity Chymotrypsin: inhibitor/protease ratio between about 10/1 and 50/1. As to the method:
as §1, §2, §3, §4, §5, §6, §7, §8, §9, §10
(A) Buffer solution - triethanolamine buffer- See trypsin assay.
(B) Substrate Solution - Dissolve 25 mg of 3-carbomethoxypropionyl-L-arginyl-L-prolyl-L-tyrosine p-nitroanilide (Product No. S-2586, KabiVitrum AB, Stockholm, Sweden) in 23.6 ml of water
(C) Enzyme solution - Dissolve 1 mg of bovine chymotrypsin in 4 ml of 0.001N HCl. Prepare the final dilution by combining 0.1 ml of the stock chymotrypsin solution and 10 ml of 0.001N HCl. Store on ice or at 4° C.
Procedure: Use the above solutions in the general protocol
(2) See note 1 of the cathepsin G assay.
(3) 0.1M Tris-HCl, pH 7.8, 20 mM CaCl2, 0.05% triton X-100 can be substituted for the triethanolamine buffer.

Assay [3] addresses T4, Human Sputum Cathepsin G (Homo sapiens, UniProt P08311).
T4 construct: Human Sputum Cathepsin G (Product No. SG-45, EPC, Inc., Pacific, Mo.); purchased EPC, Inc., Pacific, Mo; SG-45; host or cells: human sputum
T4 sequence (P08311 21-255): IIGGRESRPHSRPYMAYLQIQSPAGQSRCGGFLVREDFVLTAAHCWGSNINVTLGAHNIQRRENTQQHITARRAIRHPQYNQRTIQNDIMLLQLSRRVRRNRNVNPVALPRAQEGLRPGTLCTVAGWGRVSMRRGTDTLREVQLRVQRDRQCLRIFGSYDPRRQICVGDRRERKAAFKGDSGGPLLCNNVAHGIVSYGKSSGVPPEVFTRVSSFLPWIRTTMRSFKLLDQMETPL
Nature of the assay: Cathepsin G assay (spectrophotometric, p-nitroanilide substrate). Format: biochemical. Conditions: for Inhibitory Activity Cathepsin G: inhibitor/protease ratio between about 10/1 and 50/1. How it is done: as §1, §2, §3, §4, §5, §6, §7, §8, §9, §10
(A) Buffer Solution - Tris-NaCl buffer consisting of 0.1M Tris-HCl, pH 8.0 containing 0.5M NaCl and 0.03% sodium azide.
(B) Substrate solution - Dissolve 50 mg of N-succinyl-L-alanyl-L-alanyl-L-prolyl-L-phenylalanine p-nitroanilide in 1 ml of 1-methyl-2-pyrrolidinone and dilute to 50 ml with Tris-NaCl buffer.
(C) Enzyme Solution - Human Sputum Cathepsin G (Product No. SG-45, EPC, Inc., Pacific, Mo.). Dissolve 1 mg of protein per 1 ml of Tris-NaCl buffer. Store on ice or at 4° C.
(D) Test Solutions - See the general protocol, number 8.
Procedure: Use the above solution in the general protocol described above. […]

In assay [4] the target is T2, bovine trypsin. Conditions: stated for comparison, no test described; cited from earlier work.
Assay [5] addresses T4, Human Sputum Cathepsin G. Conditions: stated for comparison, no test described; cited from earlier work.
Assay [6] deals with T3, bovine chymotrypsin. Conditions: stated for comparison, no test described; cited from earlier work.

“Also recorded” adds a separate entry of the source. Read-outs that look alike come from different tables or passages of the source.

In the case of “R V C Hyp VILMKCKKDSDCLAECVCLEHGYCG [Peptide 47]”, at Human Sputum Elastase, the “Inhibitory Activity Elastase” value was “++ (Represents greater than 50% inhibition)” and the “inhibition of human elastase (in words)” value was “continue to be inhibitors of human elastase”. For the same substance, the “Inhibitory Activity Trypsin” value on bovine trypsin [1] was “- (Represents less than 10% inhibition)”. The “Inhibitory Activity Chymotrypsin” value on bovine chymotrypsin [2] is on record as “- (Represents less than 10% inhibition)”. Moreover, the “Inhibitory Activity Cathepsin G” value on Human Sputum Cathepsin G [3] is on record as “- (Represents less than 10% inhibition)”.
Consider “RVCPIILMKCKKDSDCLAECVCLEHGYCG (RVCPIILMKCKKDSDCLAECVCLEHGYCG) [Peptide 1]”, for which the “Inhibitory Activity Elastase” value with Human Sputum Elastase is “++ (Represents greater than 50% inhibition)”. In addition, in the assay with bovine trypsin [1], the “Inhibitory Activity Trypsin” value was “- (Represents less than 10% inhibition)”. Further, the “Inhibitory Activity Chymotrypsin” value with bovine chymotrypsin [2] is given as “- (Represents less than 10% inhibition)”. The “Inhibitory Activity Cathepsin G” value in the assay with Human Sputum Cathepsin G [3] is reported as “- (Represents less than 10% inhibition)”.
Turning to “RVCPRILMKCKKDSDCLAECVCLEHGYC (RVCPRILMKCKKDSDCLAECVCLEHGYC) [Control, comparative control, reference compound]”, the “Inhibitory Activity Elastase” value in the assay with Human Sputum Elastase is listed as “- (Represents less than 10% inhibition)”. Also, the “Inhibitory Activity Trypsin” value with bovine trypsin [1] was “++ (Represents greater than 50% inhibition)”. Also, the “Inhibitory Activity Chymotrypsin” value with bovine chymotrypsin [2] was “- (Represents less than 10% inhibition)”. In the assay with Human Sputum Cathepsin G [3], the “Inhibitory Activity Cathepsin G” value was “- (Represents less than 10% inhibition)”.
Regarding “RVCPVSLMKCKKDSDCLAECVCLEHGYCG (RVCPVSLMKCKKDSDCLAECVCLEHGYCG) [Peptide 44]”, the “Inhibitory Activity Elastase” value with Human Sputum Elastase is “++ (Represents greater than 50% inhibition)”. The “Inhibitory Activity Trypsin” value with bovine trypsin [1] is listed as “- (Represents less than 10% inhibition)”. Besides, the “Inhibitory Activity Chymotrypsin” value in the assay with bovine chymotrypsin [2] is listed as “- (Represents less than 10% inhibition)”. Besides, the “Inhibitory Activity Cathepsin G” value with Human Sputum Cathepsin G [3] was “- (Represents less than 10% inhibition)”.
For “RVCPGILMKCKKDSDCLAECVCLEHGYCG (RVCPGILMKCKKDSDCLAECVCLEHGYCG) [Peptide 51]”, in the assay with Human Sputum Elastase, the “Inhibitory Activity Elastase” value was “++ (Represents greater than 50% inhibition)” and the “inhibition of human elastase (in words)” value is “is a human elastase inhibitor; also recorded: less effective inhibitor of elastase than peptides 1 or 8”. In addition, the “Inhibitory Activity Trypsin” value with bovine trypsin [1] was “- (Represents less than 10% inhibition)”. In addition, the “Inhibitory Activity Chymotrypsin” value with bovine chymotrypsin [2] was “- (Represents less than 10% inhibition)”. Besides, the “Inhibitory Activity Cathepsin G” value with Human Sputum Cathepsin G [3] was “- (Represents less than 10% inhibition)”.
As to “RVCPFILMKCKKDSDCLAECVCLEHGYCG (RVCPFILMKCKKDSDCLAECVCLEHGYCG) [Peptide 15]”, in the assay with Human Sputum Elastase, the “Inhibitory Activity Elastase” value is “++ (Represents greater than 50% inhibition)” and the “inhibition of human elastase (in words)” value was “inhibited”. The “Inhibitory Activity Trypsin” value with bovine trypsin [1] was “++ (Represents greater than 50% inhibition)”. In addition, the “inhibition of trypsin (in words)” value with bovine trypsin [1] (text discussion of Table III) is listed as “inhibited”. The “Inhibitory Activity Chymotrypsin” value in the assay with bovine chymotrypsin [2] is reported as “++ (Represents greater than 50% inhibition)”. Also, in the assay with bovine chymotrypsin [2] (text discussion of Table III), the “inhibition of chymotrypsin (in words)” value is “Inhibition of chymotrypsin and cathepsin G was observed”. Further, the “Inhibitory Activity Cathepsin G” value with Human Sputum Cathepsin G [3] was “++ (Represents greater than 50% inhibition)”. The “inhibition of cathepsin G (in words)” value in the assay with Human Sputum Cathepsin G [3] (text discussion of Table III) was “Inhibition of chymotrypsin and cathepsin G was observed”.
As to α-1-Proteinase inhibitor, in the assay with bovine trypsin [4], the “inhibition of trypsin (in words)” value is on record as “inhibits all of these enzymes”. Also, the “inhibition of cathepsin G (in words)” value with Human Sputum Cathepsin G [5] is recorded as “inhibits all of these enzymes”. For the same substance, the “inhibition of chymotrypsin (in words)” value with bovine chymotrypsin [6] is “inhibits all of these enzymes”.
On to “RVCGVILMKCKKDSDCLAECVCLEHGYCG (RVCGVILMKCKKDSDCLAECVCLEHGYCG) [Peptide 46]”, for which, in the assay with Human Sputum Elastase, the “Inhibitory Activity Elastase” value is “++ (Represents greater than 50% inhibition)” and the “inhibition of human elastase (in words)” value is recorded as “continue to be inhibitors of human elastase”. The “Inhibitory Activity Trypsin” value with bovine trypsin [1] is on record as “- (Represents less than 10% inhibition)”. In addition, in the assay with bovine chymotrypsin [2], the “Inhibitory Activity Chymotrypsin” value is “- (Represents less than 10% inhibition)”. Further, in the assay with Human Sputum Cathepsin G [3], the “Inhibitory Activity Cathepsin G” value is listed as “- (Represents less than 10% inhibition)”.

The values above are taken from US4829052A, “Serine protease inhibitors” (Monsanto Company, priority 1987, dated 1989).
